Experimental findings from IntAct's records for PubMed 17693255 are described below.

B1: Hamartin (Homo sapiens), Q92574 (parent)
chain: MAQQANVGELLAMLDSPMLGVRDDVTAVFKENLNSDRGPMLVNTLVDYYLETSSQPALHILTTLQEPHDKHLLDRINEYVGKAATRLSILSLLGHVIRLQPSWKHKLSQAPLLPSLLKCLKMDTDVVVLTTGVLVLITMLPMIPQSGKQHLLDFFDIFGRLSSWCLKKPGHVAEVYLVHLHASVYALFHRLYGMYPCNFVSFLRSHYSMKENLETFEEVVKPMMEHVRIHPELVTGSKDHELDPRRWKRLETHDVVIECAKISLDPTEASYEDGYSVSHQISARFPHRSADVTTSPYADTQNSYGCATSTPYSTSRLMLLNMPGQLPQTLSSPSTRLITEPPQATLWSPSMVCGMTTPPTSPGNVPPDLSHPYSKVFGTTAGGKGTPLGTPATSPPPAPLCHSDDYVHISLPQATVTPPRKEERMDSARPCLHRQHHLLNDRGSEEPPGSKGSVTLSDLPGFLGDLASEEDSIEKDKEEAAISRELSEITTAEAEPVVPRGGFDSPFYRDSLPGSQRKTHSAASSSQGASVNPEPLHSSLDKLGPDTPKQAFTPIDLPCGSADESPAGDRECQTSLETSIFTPSPCKIPPPTRVGFGSGQPPPYDHLFEVALPKTAHHFVIRKTEELLKKAKGNTEEDGVPSTSPMEVLDRLIQQGADAHSKELNKLPLPSKSVDWTHFGGSPPSDEIRTLRDQLLLLHNQLLYERFKRQQHALRNRRLLRKVIKAAALEEHNAAMKDQLKLQEKDIQMWKVSLQKEQARYNQLQEQRDTMVTKLHSQIRQLQHDREEFYNQSQELQTKLEDCRNMIAELRIELKKANNKVCHTELLLSQVSQKLSNSESVQQQMEFLNRQLLVLGEVNELYLEQLQNKHSDTTKEVEMMKAAYRKELEKNRSHVLQQTQRLDTSQKRILELESHLAKKDHLLLEQKKYLEDVKLQARGQLQAAESRYEAQKRITQVFELEILDLYGRLEKDGLLKKLEEEKAEAAEAAEERLDCCNDGCSDSMVGHNEEASGHNGETKTPRPSSARGSSGSRGGGGSSSSSSELSTPEKPPHQRAGPFSSRWETTMGEASASIPTTVGSLPSSKSFLGMKARELFRNKSESQCDEDGMTSSLSESLKTELGKDLGVEAKIPLNLDGPHPSPPTPDSVGQLHIMDYNETHHEHS

In the assay the parent is B1. The conditions noted are these: with tsc2_human TSC2, P49815.
tsc2_human TSC2, P49815, sequence (P49815 whole entry): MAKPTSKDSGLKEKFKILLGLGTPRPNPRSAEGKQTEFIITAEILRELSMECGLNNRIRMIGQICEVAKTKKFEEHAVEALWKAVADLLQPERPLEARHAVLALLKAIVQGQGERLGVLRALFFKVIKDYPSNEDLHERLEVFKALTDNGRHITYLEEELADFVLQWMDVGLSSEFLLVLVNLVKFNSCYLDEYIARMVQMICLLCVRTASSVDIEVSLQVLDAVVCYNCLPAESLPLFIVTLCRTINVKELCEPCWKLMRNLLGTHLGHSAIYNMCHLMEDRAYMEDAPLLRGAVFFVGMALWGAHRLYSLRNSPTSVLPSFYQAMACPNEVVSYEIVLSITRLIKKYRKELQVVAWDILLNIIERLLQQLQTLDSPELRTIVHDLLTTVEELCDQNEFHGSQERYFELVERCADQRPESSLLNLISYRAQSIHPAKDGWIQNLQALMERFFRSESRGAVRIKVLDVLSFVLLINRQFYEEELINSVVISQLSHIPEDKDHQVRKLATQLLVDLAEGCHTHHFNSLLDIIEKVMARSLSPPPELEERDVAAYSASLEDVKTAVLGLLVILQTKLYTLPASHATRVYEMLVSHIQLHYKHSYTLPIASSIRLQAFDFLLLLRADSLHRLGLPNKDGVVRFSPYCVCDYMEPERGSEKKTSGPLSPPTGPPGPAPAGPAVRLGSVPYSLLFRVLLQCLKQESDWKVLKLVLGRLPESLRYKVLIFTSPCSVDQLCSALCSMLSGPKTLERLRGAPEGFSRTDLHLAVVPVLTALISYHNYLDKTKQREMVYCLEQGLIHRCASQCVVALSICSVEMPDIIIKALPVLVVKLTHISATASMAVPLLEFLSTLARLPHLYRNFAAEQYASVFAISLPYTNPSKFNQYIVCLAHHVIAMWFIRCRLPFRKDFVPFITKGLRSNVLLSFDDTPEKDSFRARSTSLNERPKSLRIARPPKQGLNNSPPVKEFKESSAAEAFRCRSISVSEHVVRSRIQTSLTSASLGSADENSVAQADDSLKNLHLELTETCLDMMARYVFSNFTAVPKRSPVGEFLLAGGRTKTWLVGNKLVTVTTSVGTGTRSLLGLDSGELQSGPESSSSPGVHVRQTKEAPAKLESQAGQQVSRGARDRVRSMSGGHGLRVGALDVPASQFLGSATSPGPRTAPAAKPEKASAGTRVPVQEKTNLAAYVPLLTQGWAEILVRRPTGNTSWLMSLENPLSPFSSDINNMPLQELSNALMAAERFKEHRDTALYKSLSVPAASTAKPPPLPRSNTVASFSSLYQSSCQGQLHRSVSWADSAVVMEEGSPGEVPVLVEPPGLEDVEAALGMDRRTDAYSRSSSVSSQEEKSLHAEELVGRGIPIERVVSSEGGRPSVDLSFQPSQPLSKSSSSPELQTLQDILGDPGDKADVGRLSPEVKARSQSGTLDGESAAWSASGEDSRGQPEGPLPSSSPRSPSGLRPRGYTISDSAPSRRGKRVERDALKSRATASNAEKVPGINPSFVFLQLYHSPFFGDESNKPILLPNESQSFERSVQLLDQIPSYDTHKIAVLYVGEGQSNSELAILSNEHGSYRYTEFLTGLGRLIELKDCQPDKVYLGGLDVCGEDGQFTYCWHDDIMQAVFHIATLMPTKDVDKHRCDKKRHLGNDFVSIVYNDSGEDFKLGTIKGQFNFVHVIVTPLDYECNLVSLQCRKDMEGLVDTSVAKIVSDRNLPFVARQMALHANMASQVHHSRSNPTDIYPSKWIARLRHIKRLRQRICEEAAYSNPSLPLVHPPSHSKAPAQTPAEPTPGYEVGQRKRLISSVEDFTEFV
For the variant S487D;S511D, the “effect of a mutation on the interaction” value is listed as “decreasing interaction”.
